Test results published in publication PMC6990103 (2019).

Columns and labels:
Experiment in all cases: ELISA
[1] = target: recombinant EBOV Kikwit 1995 NP (Zaire ebolavirus (EBOV) Kikwit 1995, UniProt O72142 1-739)
[2] = target: nluc-NP612 fusion protein, EBOV (Zaire ebolavirus (EBOV), UniProt O72142 612-739)
[3] = target: nluc-NP612 fusion protein, SUDV (Sudan ebolavirus (SUDV), UniProt Q9QP77 612-738)
[4] = target: recombinant SUDV Boniface 1976 NP (Sudan ebolavirus (SUDV) Boniface 1976, UniProt Q9QP77 1-738)

B1: sdAb ZE-gluc fusion (glucibody) (VHH)
VHH: QVQLQESGGGLVQPGGSLRLSCTASGFTLAEYGVGWFRQAPGKERELVALIAVGGTTHSIDSVKGRFTISRDNMKNTVYLQMNSLNVEDTAVYYCNAYSSAYDRNYWGQGTQVTVSS
B1 showed an EC50 [1] of 31 nM.

B2: sdAb ZE, biotinylated (from pecan126) (VHH)
VHH: QVQLQESGGGLVQPGGSLRLSCTASGFTLAEYGVGWFRQAPGKERELVALIAVGGTTHSIDSVKGRFTISRDNMKNTVYLQMNSLNVEDTAVYYCNAYSSAYDRNYWGQGTQVTVSS
modifications: biotin (singly biotinylated)
For B2, the EC50 [2] was 1030 nM.

B3: sdAb SB, biotinylated (from pecan126) (VHH)
VHH: QVKLQQSGGGSVQEGGSLRLSCASSGAFFRAGPMGWYRRAPGNERELVAGISRNGRTIYAPSLKDRFTISRDDDNNILYLQMSDLTPGDTAVYYCNLNVRTAVAGRNDYWGQGTQVTVSS
modifications: biotin (singly biotinylated)
B3 gave an EC50 [3] of 635 nM.

B4: sdAb SB-gluc fusion (glucibody) (VHH)
VHH: QVKLQQSGGGSVQEGGSLRLSCASSGAFFRAGPMGWYRRAPGNERELVAGISRNGRTIYAPSLKDRFTISRDDDNNILYLQMSDLTPGDTAVYYCNLNVRTAVAGRNDYWGQGTQVTVSS
With B4 the EC50 [4] was 37 nM.

B5: sdAb ZC-gluc fusion (glucibody) (VHH)
VHH: KVQLQQSGGGSVTPGGSLRLSCAASGSISDFAAMAWYRQAPGKERDWVGTIFSAGALLYAEPVKGRFTISRDNAKNTVYLQMNSLKPEDTAVYYCRLYAEAIYWGQGTQVTVSS
With B5 the EC50 [1] was 13 nM.

B6: sdAb ZC, biotinylated (from pecan126) (VHH)
VHH: KVQLQQSGGGSVTPGGSLRLSCAASGSISDFAAMAWYRQAPGKERDWVGTIFSAGALLYAEPVKGRFTISRDNAKNTVYLQMNSLKPEDTAVYYCRLYAEAIYWGQGTQVTVSS
modifications: biotin (singly biotinylated)
B6 gave an EC50 [2] of 186 nM.
